Reference: PMC11116900, “Interaction among homeodomain transcription factors mediates ethylene biosynthesis during pear fruit ripening”

Legend:
Assay in all cases: EMSA; competed by 10x and 100x cold probe; EMSA according to a previous study (ref 35); buffer, salt, pH and temperature not given
Details in all cases: protein: recombinant; tags: TF (trigger factor) fusion from pCold-TF; chain copies: 2; label: biotin
[1] = biological target: T1, PbHB.G7.2 (pear (Pyrus; species  in the …, UniProt A0A5N5HLN1 1-287)
T1 sequence: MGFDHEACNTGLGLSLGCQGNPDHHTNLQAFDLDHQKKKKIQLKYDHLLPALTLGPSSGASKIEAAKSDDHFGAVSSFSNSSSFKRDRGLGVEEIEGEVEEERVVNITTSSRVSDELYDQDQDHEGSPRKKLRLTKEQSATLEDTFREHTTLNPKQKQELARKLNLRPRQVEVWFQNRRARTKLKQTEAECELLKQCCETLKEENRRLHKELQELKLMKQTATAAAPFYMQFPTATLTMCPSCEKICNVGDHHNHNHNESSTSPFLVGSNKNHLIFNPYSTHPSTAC

[2] = biological target: T2, PbHB.G1 (pear (Pyrus; species  in the …, UniProt UPI0020301D10 1-344)
T2 sequence: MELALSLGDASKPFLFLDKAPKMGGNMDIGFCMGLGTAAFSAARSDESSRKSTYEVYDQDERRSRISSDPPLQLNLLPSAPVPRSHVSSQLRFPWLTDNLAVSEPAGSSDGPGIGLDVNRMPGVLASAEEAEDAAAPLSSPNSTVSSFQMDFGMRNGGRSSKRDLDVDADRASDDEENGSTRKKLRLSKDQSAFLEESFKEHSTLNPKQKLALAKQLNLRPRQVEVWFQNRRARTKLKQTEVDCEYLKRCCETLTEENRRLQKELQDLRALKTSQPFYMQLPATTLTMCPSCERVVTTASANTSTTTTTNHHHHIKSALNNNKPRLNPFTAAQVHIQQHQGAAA

[3] = biological target: T3, PbHB.G2.1 (pear (Pyrus; species  in the …, UniProt A0A5N5HPW9 1-368)
T3 sequence: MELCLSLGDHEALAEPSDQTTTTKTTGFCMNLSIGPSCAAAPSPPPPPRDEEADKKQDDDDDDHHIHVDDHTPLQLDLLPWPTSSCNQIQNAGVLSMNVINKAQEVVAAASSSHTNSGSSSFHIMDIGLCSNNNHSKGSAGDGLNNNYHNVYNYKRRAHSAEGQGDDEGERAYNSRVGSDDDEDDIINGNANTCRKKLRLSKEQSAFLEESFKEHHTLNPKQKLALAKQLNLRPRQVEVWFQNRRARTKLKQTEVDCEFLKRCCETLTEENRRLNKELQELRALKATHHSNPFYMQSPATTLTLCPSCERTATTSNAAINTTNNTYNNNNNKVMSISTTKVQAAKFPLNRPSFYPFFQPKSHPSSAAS

B1: PbACS1b promoter P9 probe (34 bp) (dsDNA)
DNA 1: CTTATGGGTCGGTTTTTCTACATTTGAATTTTGA
DNA 2: TCAAAATTCAAATGTAGAAAAACCGACCCATAAG
[1]
  binding result: binds

B2: PbACS1b promoter P16 probe 1 (33 bp) (dsDNA)
DNA 1: TTATATGTTGTATCTTATTTCATCGTTGATTAC
DNA 2: GTAATCAACGATGAAATAAGATACAACATATAA
[2]
  binding result: binds

B3: PbACS1b promoter P17 probe 2 (40 bp) (dsDNA)
DNA 1: CCTCAAGGAAATAGTAATACCCTTTAGATTTGAAGTCCTA
DNA 2: TAGGACTTCAAATCTAAAGGGTATTACTATTTCCTTGAGG
[3]
  binding result: binds
